From patent publication US20100297135A1

Assays:
[1] = target: wild type human GM-CSF (human) (UniProt P04141); assay: SPR (Biacore), human GM-CSF coated on CM5 chip, antibody injected
[2] = target: human GM-CSF mutant M5b (S96 to N110 replaced by murine sequence) (human); assay: semi-quantitative ELISA; GM-CSF polypeptide coated in 2-fold dilutions (x axis = coating concentration), BD antibody fixed at 310 ng/ml, rabbit anti-rat IgG-HRP, absorbance 450 nm
[3] = target: human GM-CSF mutant M5 (I101 to V117 replaced by murine sequence) (human); assay: as above
Chain of human GM-CSF mutant M5 (I101 to V117 replaced by murine sequence) (human) (P04141 other isoform, or with tags, fused parts or gaps mutant): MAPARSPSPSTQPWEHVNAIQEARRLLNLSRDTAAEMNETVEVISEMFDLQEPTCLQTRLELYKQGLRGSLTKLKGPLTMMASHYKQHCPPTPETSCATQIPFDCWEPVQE

Chain of wild type human GM-CSF (human) (P04141 other isoform, or with tags, fused parts or gaps limits assumed): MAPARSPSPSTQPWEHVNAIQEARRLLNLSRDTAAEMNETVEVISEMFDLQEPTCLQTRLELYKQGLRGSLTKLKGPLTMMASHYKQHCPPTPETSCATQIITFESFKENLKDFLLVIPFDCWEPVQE
Chain of human GM-CSF mutant M5b (S96 to N110 replaced by murine sequence) (human) (P04141 other isoform, or with tags, fused parts or gaps mutant): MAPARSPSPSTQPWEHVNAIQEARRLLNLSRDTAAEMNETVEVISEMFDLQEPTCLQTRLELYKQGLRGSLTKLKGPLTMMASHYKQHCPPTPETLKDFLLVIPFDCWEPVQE

With “commercially available rat anti-human GM-CSF antibody from BD Biosciences (Cat No. 554501)” as the substance, how does the Ka [1] read?
The Ka was over 5.2e+09 M⁻¹.

And the Kd [1]?
Its Kd is under 190 pM.

And the koff [1]?
The koff was under 1e-05 s⁻¹.

What about the kon [1] of the same substance?
The kon was 52000 M⁻¹ s⁻¹.

What about the EC50 (read off the curve) [2] of the same substance?
Its EC50 (read off the curve) is 400 µg/mL.

And the EC50 (read off the curve) [3]?
Its EC50 (read off the curve) is 300 µg/mL.
